Values quoted from earlier work as cited in PMC8828474.

Molecular target: Spike RBD (SARS-CoV-2) (UniProt P0DTC2)

## bamlanivimab
  Kd: 0.8 nM
